Assay results reported in US5508261A, “Analogs of glycoprotein hormones having altered receptor binding specificity and activity and methods for preparing and using same” (University of Medicine & Dentistry of New Jersey, priority 1995, dated 1996).

How the values were obtained:
[1] = system: bovine testes FSH receptors; experiment: Inhibition of 125I-hFSH binding to bovine testes tissue homogenates (radioligand receptor assay); conditions: concentration of recombinant hFSH for 50% inhibition of 125I-hFSH binding divided by that of analog
From the text: (§1) The term "N.D." means not determined because concentrations of analog were not employed high enough to detect 50% inhibition.
(§2) An aliquot of the ligation mixture was taken and used to transform DH5-alpha strain E. coli. (obtained from Bethesda Research Laboratories, Gaithersburg, Md.). Plasmid DNAs from ampicillin-resistant DH5-alpha clones were screened by digestion with BglII (which is unique to vectors containing the cassette) and EcoRI (which cuts in the vector). Positive clones were identified by the presence of two fragments (approximately 0.8 Kbp and 2.9 Kbp). […] After the DNA was subjected to a dideoxy sequencing procedure to confirm that it encoded "GT" (Table 1), the plasmid DNA was then cotransfected into COS-7 cells (obtained from the American Type Culture Collection) along with pSVL-hCG-alpha, a pSVL-based plasmid encoding the human glycoprotein hormone alpha-subunit (10, 21), using a DEAE-dextran procedure (10).

[2] = system: rat luteal ovarian LH receptors; experiment: Inhibition of 125I-hCG binding to rat corpora luteal LH receptors (radioligand receptor assay); conditions: concentration of recombinant hCG for 50% inhibition of 125I-hCG binding divided by that of analog
From the text: as §1, §2

Activity at FSH RECEPTORS relative to that of hFSH [1]: 0.18
Activity at LH RECEPTORS relative to that of hCG [2]: 0.53
B1: eCG: equine gonadotropin control (text calls the control eLH, equine lutropin) (protein)
chain: SRGPLRPLCRPINATLAAEKEACPICITFTTSICAGYCPSMVRVMPAALPAIPQPVCTYRELRFASIRLPGCPPGVDPMVSFPVALSCHCGPCQIKTTDCGVFRDQPLACAPQASSSSKDPPSQPLTSTSTPTPGASRRSSHPLPIKTS
